Source: doi:10.1101/2020.05.05.065912
Read-outs that look alike come from different tables or passages of the source.

What was measured:
BRS-Myosin VI Tail-mRFP [1] = molecular target: BRS-Myosin VI Tail-mRFP (UniProt Q9UM54); assay: FRET or BRET
BRS-Myosin VI Tail-mRFP [2] = molecular target: BRS-Myosin VI Tail-mRFP (UniProt Q9UM54); assay: FRET or BRET; remark: listed apart in the source

Chain of UniProt Q9UM54 (Q9UM54 whole entry): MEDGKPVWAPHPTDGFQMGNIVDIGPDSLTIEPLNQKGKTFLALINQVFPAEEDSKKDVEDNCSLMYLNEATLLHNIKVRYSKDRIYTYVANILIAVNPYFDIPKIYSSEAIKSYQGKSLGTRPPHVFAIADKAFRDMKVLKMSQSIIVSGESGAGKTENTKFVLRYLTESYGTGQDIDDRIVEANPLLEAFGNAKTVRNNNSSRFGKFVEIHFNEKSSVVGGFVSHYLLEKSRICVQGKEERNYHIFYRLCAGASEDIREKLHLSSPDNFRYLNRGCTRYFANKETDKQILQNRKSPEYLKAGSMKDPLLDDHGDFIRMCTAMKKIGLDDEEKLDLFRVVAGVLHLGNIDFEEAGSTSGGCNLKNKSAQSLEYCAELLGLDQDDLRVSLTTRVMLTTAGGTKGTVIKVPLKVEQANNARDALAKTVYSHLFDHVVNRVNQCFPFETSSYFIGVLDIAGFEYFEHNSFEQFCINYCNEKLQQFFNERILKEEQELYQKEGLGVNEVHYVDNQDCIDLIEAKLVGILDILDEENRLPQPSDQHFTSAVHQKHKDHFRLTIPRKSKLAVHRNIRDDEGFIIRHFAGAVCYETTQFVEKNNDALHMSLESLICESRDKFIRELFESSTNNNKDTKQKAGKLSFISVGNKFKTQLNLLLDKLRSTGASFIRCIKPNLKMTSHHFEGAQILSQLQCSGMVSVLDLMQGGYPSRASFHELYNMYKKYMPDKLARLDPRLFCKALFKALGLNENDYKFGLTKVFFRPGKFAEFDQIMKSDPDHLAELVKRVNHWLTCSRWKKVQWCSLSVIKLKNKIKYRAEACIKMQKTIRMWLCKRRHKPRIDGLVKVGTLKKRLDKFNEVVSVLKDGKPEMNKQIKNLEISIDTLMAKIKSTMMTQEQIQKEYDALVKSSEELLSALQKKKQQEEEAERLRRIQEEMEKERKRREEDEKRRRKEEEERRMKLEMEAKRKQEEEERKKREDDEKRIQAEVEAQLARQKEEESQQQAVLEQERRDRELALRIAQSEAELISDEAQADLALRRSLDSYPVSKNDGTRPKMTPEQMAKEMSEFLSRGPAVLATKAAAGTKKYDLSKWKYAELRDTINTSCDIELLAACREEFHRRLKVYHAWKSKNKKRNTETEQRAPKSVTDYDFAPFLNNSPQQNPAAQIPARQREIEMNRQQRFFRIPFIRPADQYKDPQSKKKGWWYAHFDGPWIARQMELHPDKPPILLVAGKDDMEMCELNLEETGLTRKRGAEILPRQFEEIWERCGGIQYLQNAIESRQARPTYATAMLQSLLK

B1: GFP-NDP52 (natural protein)
chain: MEETIKDPPTSAVLLDHCHFSQVIFNSVEKFYIPGGDVTCHYTFTQHFIPRRKDWIGIFRVGWKTTREYYTFMWVTLPIDLNNKSAKQQEVQFKAYYLPKDDEYYQFCYVDEDGVVRGASIPFQFRPENEEDILVVTTQGEVEEIEQHNKELCKENQELKDSCISLQKQNSDMQAELQKKQEELETLQSINKKLELKVKEQKDYWETELLQLKEQNQKMSSENEKMGIRVDQLQAQLSTQEKEMEKLVQGDQDKTEQLEQLKKENDHLFLSLTEQRKDQKKLEQTVEQMKQNETTAMKKQQELMDENFDLSKRLSENEIICNALQRQKERLEGENDLLKRENSRLLSYMGLDFNSLPYQVPTSDEGGARQNPGLAYGNPYSGIQESSSPSPLSIKKCPICKADDICDHTLEQQQMQPLCFNCPICDKIFPATEKQIFEDHVFCHSL
BRS-Myosin VI Tail-mRFP [1]
  Kd: 1.1 µM
BRS-Myosin VI Tail-mRFP [2]
  Kd: 3.9 µM
